Measured values published in the supplement of paper PMC10567573.

B1: ATE1 (parent)
chain: DYFPSEDFYRCGYCKNESGSRSNG

Variants of: B1
Assay: protein stability index of a GFP-peptide fusion (GPS, HEK-293T) (PSI 1-6); higher = more stable
Conditions: c terminus: a fixed tail appended
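Also: lentivirally expressed fusions sorted by FACS into six bins by GFP to DsRed ratio, PSI derived from sequencing read proportions per bin multiplied by bin number.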

| Variant | protein stability index |
| --- | --- |
| DYVPSEDFYRCGYCKNESGSRSNG | 2.13 |
| DYTPSEDFYRCGYCKNESGSRSNG | 2.45 |
| DYCPSEDFYRCGYCKNESGSRSNG | 1.49 |
| DYRPSEDFYRCGYCKNESGSRSNG | 2.58 |
| DYQPSEDFYRCGYCKNESGSRSNG | 3.12 |
| DYPPSEDFYRCGYCKNESGSRSNG | 3.21 |
| DYLPSEDFYRCGYCKNESGSRSNG | 1.83 |
| DYWPSEDFYRCGYCKNESGSRSNG | 2.85 |
| DYMPSEDFYRCGYCKNESGSRSNG | 2.99 |
| DYNPSEDFYRCGYCKNESGSRSNG | 2.08 |
| DYKPSEDFYRCGYCKNESGSRSNG | 2.44 |
| DYAPSEDFYRCGYCKNESGSRSNG | 2.45 |
| DYIPSEDFYRCGYCKNESGSRSNG | 2.27 |
| DYGPSEDFYRCGYCKNESGSRSNG | 3.35 |
| DYSPSEDFYRCGYCKNESGSRSNG | 2.83 |
| DYHPSEDFYRCGYCKNESGSRSNG | 1.8 |
| DYDPSEDFYRCGYCKNESGSRSNG | 2.61 |
| DYYPSEDFYRCGYCKNESGSRSNG | 2.14 |
| DAFPSEDFYRCGYCKNESGSRSNG | 3.05 |
| DDFPSEDFYRCGYCKNESGSRSNG | 2.53 |
| DHFPSEDFYRCGYCKNESGSRSNG | 2.37 |
| DTFPSEDFYRCGYCKNESGSRSNG | 2.63 |
| DEFPSEDFYRCGYCKNESGSRSNG | 2.63 |
| DMFPSEDFYRCGYCKNESGSRSNG | 1.36 |

| Variant | protein stability index |
| --- | --- |
| DSFPSEDFYRCGYCKNESGSRSNG | 2.44 |
| DGFPSEDFYRCGYCKNESGSRSNG | 2.56 |
| DFFPSEDFYRCGYCKNESGSRSNG | 1.82 |
| DPFPSEDFYRCGYCKNESGSRSNG | 2.64 |
| DWFPSEDFYRCGYCKNESGSRSNG | 1.24 |
| DNFPSEDFYRCGYCKNESGSRSNG | 2.36 |
| DKFPSEDFYRCGYCKNESGSRSNG | 2.38 |
| DRFPSEDFYRCGYCKNESGSRSNG | 4.56 |
| DVFPSEDFYRCGYCKNESGSRSNG | 2.18 |
| DCFPSEDFYRCGYCKNESGSRSNG | 2.82 |
| DLFPSEDFYRCGYCKNESGSRSNG | 2.43 |
| DIFPSEDFYRCGYCKNESGSRSNG | 2.09 |
| DYFPPEDFYRCGYCKNESGSRSNG | 2.32 |
| DYFPREDFYRCGYCKNESGSRSNG | 1.7 |
| DYFPFEDFYRCGYCKNESGSRSNG | 2.01 |
| DYFPKEDFYRCGYCKNESGSRSNG | 2.02 |
| DYFPNEDFYRCGYCKNESGSRSNG | 1.61 |
| DYFPAEDFYRCGYCKNESGSRSNG | 2.19 |
| DYFPGEDFYRCGYCKNESGSRSNG | 2.17 |
| DYFPCEDFYRCGYCKNESGSRSNG | 1.52 |
| DYFPHEDFYRCGYCKNESGSRSNG | 1.98 |
| DYFPYEDFYRCGYCKNESGSRSNG | 2.83 |
| DYFPLEDFYRCGYCKNESGSRSNG | 1.61 |
| DYFPMEDFYRCGYCKNESGSRSNG | 1.42 |

| Variant | protein stability index |
| --- | --- |
| DYFPIEDFYRCGYCKNESGSRSNG | 1.88 |
| DYFPVEDFYRCGYCKNESGSRSNG | 2.16 |
| DYFPDEDFYRCGYCKNESGSRSNG | 2.46 |
| DYFPTEDFYRCGYCKNESGSRSNG | 2.15 |
| DYFPQEDFYRCGYCKNESGSRSNG | 2.41 |
| DYFPSEGFYRCGYCKNESGSRSNG | 1.85 |
| DYFPSEFFYRCGYCKNESGSRSNG | 1.17 |
| DYFPSEMFYRCGYCKNESGSRSNG | 1.83 |
| DYFPSEAFYRCGYCKNESGSRSNG | 1.63 |
| DYFPSEIFYRCGYCKNESGSRSNG | 1.11 |
| DYFPSEHFYRCGYCKNESGSRSNG | 1.76 |
| DYFPSELFYRCGYCKNESGSRSNG | 2.29 |
| DYFPSENFYRCGYCKNESGSRSNG | 2.28 |
| DYFPSEKFYRCGYCKNESGSRSNG | 2.53 |
| DYFHSEDFYRCGYCKNESGSRSNG | 1.29 |
| DYFFSEDFYRCGYCKNESGSRSNG | 1.43 |
| DYFDSEDFYRCGYCKNESGSRSNG | 2.07 |
| DYFVSEDFYRCGYCKNESGSRSNG | 1.18 |
| DYFESEDFYRCGYCKNESGSRSNG | 2.21 |
| DYFTSEDFYRCGYCKNESGSRSNG | 2.26 |
| DYFCSEDFYRCGYCKNESGSRSNG | 2.08 |
| DYFRSEDFYRCGYCKNESGSRSNG | 1.79 |
| DYFQSEDFYRCGYCKNESGSRSNG | 2.77 |
| DYFLSEDFYRCGYCKNESGSRSNG | 2.53 |

| Variant | protein stability index |
| --- | --- |
| DYFMSEDFYRCGYCKNESGSRSNG | 2.59 |
| DYFWSEDFYRCGYCKNESGSRSNG | 1.08 |
| DYFKSEDFYRCGYCKNESGSRSNG | 1.92 |
| DYFSSEDFYRCGYCKNESGSRSNG | 3.09 |
| DYFNSEDFYRCGYCKNESGSRSNG | 2.16 |
| DYFISEDFYRCGYCKNESGSRSNG | 1.45 |
| DYFPSCDFYRCGYCKNESGSRSNG | 1.85 |
| DYFPSVDFYRCGYCKNESGSRSNG | 1.45 |
| DYFPSQDFYRCGYCKNESGSRSNG | 1.92 |
| DYFPSGDFYRCGYCKNESGSRSNG | 1.65 |
| DYFPSWDFYRCGYCKNESGSRSNG | 2.04 |
| DYFPSDDFYRCGYCKNESGSRSNG | 1.92 |
| DYFPSMDFYRCGYCKNESGSRSNG | 2.38 |
| DYFPSFDFYRCGYCKNESGSRSNG | 1.56 |
| DYFPSRDFYRCGYCKNESGSRSNG | 1.53 |
| DYFPSLDFYRCGYCKNESGSRSNG | 1.85 |
| DYFPSHDFYRCGYCKNESGSRSNG | 2.17 |
| DYFPSYDFYRCGYCKNESGSRSNG | 1.74 |
| DYFPSSDFYRCGYCKNESGSRSNG | 1.8 |
| DYFPSTDFYRCGYCKNESGSRSNG | 2.94 |
| DYFPSNDFYRCGYCKNESGSRSNG | 1.68 |
| DYFPSKDFYRCGYCKNESGSRSNG | 1.35 |
